The supplement of paper PMC11246515
± gives the standard deviation of the averaged measurements.

Assay: total protein half-life in vivo (active degradation + dilution); higher = more stable protein
[1] = E. coli NCM3722 delta-clpP delta-lon delta-hslV, growth: N-lim chemostat, doubling time 6 h
[2] = E. coli NCM3722 delta-clpP, growth: N-lim chemostat, doubling time 6 h
[3] = E. coli NCM3722 delta-hslV, growth: N-lim chemostat, doubling time 6 h
[4] = E. coli NCM3722 delta-lon, growth: N-lim chemostat, doubling time 6 h
[5] = E. coli NCM3722 delta-smpB, growth: N-lim chemostat, doubling time 6 h
[6] = wild type E. coli NCM3722, growth: C-lim chemostat, doubling time 3 h
[7] = wild type E. coli NCM3722, growth: C-lim chemostat, doubling time 6 h
[8] = wild type E. coli NCM3722, growth: C-lim chemostat, doubling time 12 h
[9] = wild type E. coli NCM3722, growth: N-lim chemostat, doubling time 6 h
[10] = wild type E. coli NCM3722, growth: N-lim chemostat, doubling time 12 h
[11] = wild type E. coli NCM3722, growth: P-lim chemostat, doubling time 6 h
[12] = wild type E. coli NCM3722, growth: P-lim chemostat, doubling time 12 h

Sequence	total protein half-life in vivo [1] [h]	total protein half-life in vivo [2] [h]	total protein half-life in vivo [3] [h]	total protein half-life in vivo [4] [h]	total protein half-life in vivo [5] [h]	total protein half-life in vivo [6] [h]	total protein half-life in vivo [7] [h]	total protein half-life in vivo [8] [h]	total protein half-life in vivo [9] [h]	total protein half-life in vivo [10] [h]	total protein half-life in vivo [11] [h]	total protein half-life in vivo [12] [h]
MQAEILLTLKLQQKLFADPRRISLLKHIALSGSISQGAKDAGISYKSAWDAINEMNQLSEHILVERATGGKGGGGAVLTRYGQRLIQLYDLLAQIQQKAFDVLSDDDALPLNSLLAAISRFSLQTSARNQWFGTITARDHDDVQQHVDVLLADGKTRLKVAITAQSGARLGLDEGKEVLILLKAPWVGITQDEAVAQNADNQLPGIISHIERGAEQCEVLMALPDGQTLCATVPVNEATSLQQGQNVTAYFNADSVIIATLC [P0A9G8]	5.338 ± 0.023	5.85 ± 0.37	6.82 ± 1.4	6.41 ± 0.61	5.84 ± 0.2	3.04 ± 0.29	6.38 ± 0.15	12.7 ± 0.41	5.703 ± 0.02	11.88 ± 0.075	6.2 ± 0.59	12.13 ± 0.038
MQALLLEQQDGKTLASVQTLDESRLPEGDVTVDVHWSSLNYKDALAITGKGKIIRNFPMIPGIDFAGTVRTSEDPRFHAGQEVLLTGWGVGENHWGGLAEQARVKGDWLVAMPQGLDARKAMIIGTAGFTAMLCVMALEDAGVRPQDGEIVVTGASGGVGSTAVALLHKLGYQVVAVSGRESTHEYLKSLGASRVLPRDEFAESRPLEKQVWAGAIDTVGDKVLAKVLAQMNYGGCVAACGLAGGFTLPTTVMPFILRNVRLQGVDSVMTPPERRAQAWQRLVADLPESFYTQAAKEISLSEAPNFAEAIINNQIQGRTLVKVN	5.18 ± 0.35	5.271 ± 0.034	5.7 ± 1.2	5.67 ± 0.37	4.6639 ± 0.0045	3.03 ± 0.091	–	10.63 ± 0.024	5.25 ± 0.21	9.06 ± 0.27	6.5 ± 0.39	13 ± 0.96
MQARVKWVEGLTFLGESASGHQILMDGNSGDKAPSPMEMVLMAAGGCSAIDVVSILQKGRQDVVDCEVKLTSERREEAPRLFTHINLHFIVTGRDLKDAAVARAVDLSAEKYCSVALMLEKAVNITHSYEVVAA [P0ADX1]	5.2 ± 0.18	5.55 ± 1.8	4.69 ± 0.32	5.8 ± 1.1	5.32 ± 0.37	> 4	6.49 ± 0.41	10.8 ± 3.3	4.88 ± 0.78	8.73 ± 0.8	5.45 ± 0.51	–
MQATATTLDHEQEYTPINSRNKVLVASLIGTAIEFFDFYIYATAAVIVFPHIFFPQGDPTAATLQSLATFAIAFVARPIGSAVFGHFGDRVGRKATLVASLLTMGISTVVIGLLPGYATIGIFAPLLLALARFGQGLGLGGEWGGAALLATENAPPRKRALYGSFPQLGAPIGFFFANGTFLLLSWLLTDEQFMSWGWRVPFIFSAVLVIIGLYVRVSLHESPVFEKVAKAKKQVKIPLGTLLTKHVRVTVLGTFIMLATYTLFYIMTVYSMTFSTAAAPVGLGLPRNEVLWMLMMAVIGFGVMVPVAGLLADAFGRRKSMVIITTLIILFALFAFNPLLGSGNPILVFAFLLLGLSLMGLTFGPMGALLPELFPTEVRYTGASFSYNVASILGASVAPYIAAWLQTNYGLGAVGLYLAAMAGLTLIALLLTHETRHQSL	–	–	–	–	–	–	–	2.58 ± 0.1	–	–	2.33 ± 0.58	2.89 ± 1.6
MQEIMQFVGRHPILSIAWIALLVAVLVTTFKSLTSKVKVITRGEATRLINKEDAVVVDLRQRDDFRKGHIAGSINLLPSEIKANNVGELEKHKDKPVIVVDGSGMQCQEPANALTKAGFAQVFVLKEGVAGWAGENLPLVRGK [P0AG27]	5.92 ± 0.38	6.89 ± 0.76	6.06 ± 0.078	5.77 ± 1	5.7 ± 0.28	3.71 ± 0.18	–	10.9 ± 1.4	5.96 ± 0.49	–	6.47 ± 0.095	–
MQENQQITKKEQYNLNKLQKRLRRNVGEAIADFNMIEEGDRIMVCLSGGKDSYTMLEILRNLQQSAPINFSLVAVNLDQKQPGFPEHVLPEYLEKLGVEYKIVEENTYGIVKEKIPEGKTTCSLCSRLRRGILYRTATELGATKIALGHHRDDILQTLFLNMFYGGKMKGMPPKLMSDDGKHIVIRPLAYCREKDIQRFADAKAFPIIPCNLCGSQPNLQRQVIADMLRDWDKRYPGRIETMFSAMQNVVPSHLCDTNLFDFKGITHGSEVVNGGDLAFDREEIPLQPACWQPEEDENQLDELRLNVVEVK	5.11 ± 0.8	3.63 ± 0.23	0.983 ± 0.28	1.44	1.0485 ± 0.00067	1.63 ± 0.051	2.26 ± 0.035	2.85 ± 0.35	1.26	1.58 ± 0.57	2.23 ± 0.24	4.26 ± 0.73
